Values joined by “and” are separate entries in the source; they are usually repeats but may differ in a detail not shown here. Equal values may be shown once. Square brackets hold non-standard residues; d marks the D form. Ends that are not written are not given here. hArg = N=C(N)NCCCC[C@H](N)C(=O)O
T1: Ac-VQIINK-NH2
T1 peptide: Ac-VQIINK-NH2


Assays:
[1] = molecular target: His-Tau40P301L Tau (UniProt P10636-8 1-441); experiment: cell-based or functional assay
[2] = molecular target: T1, Ac-VQIINK-NH2; experiment: cell-based or functional assay

Chain of His-Tau40P301L Tau (P10636 other isoform, or with tags, fused parts or gaps limits assumed): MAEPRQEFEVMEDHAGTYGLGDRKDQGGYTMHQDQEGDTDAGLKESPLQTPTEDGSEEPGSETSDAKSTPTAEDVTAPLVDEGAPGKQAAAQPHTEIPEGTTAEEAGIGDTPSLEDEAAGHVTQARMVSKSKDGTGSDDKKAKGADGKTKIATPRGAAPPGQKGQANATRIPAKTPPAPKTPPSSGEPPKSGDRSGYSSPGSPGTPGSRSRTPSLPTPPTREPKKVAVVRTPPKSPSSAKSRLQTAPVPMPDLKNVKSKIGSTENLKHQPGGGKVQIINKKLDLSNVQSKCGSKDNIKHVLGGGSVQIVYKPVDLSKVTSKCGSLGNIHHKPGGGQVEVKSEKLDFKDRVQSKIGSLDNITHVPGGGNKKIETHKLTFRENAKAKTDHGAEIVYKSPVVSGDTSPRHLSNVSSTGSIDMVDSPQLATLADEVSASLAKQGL

Row | Binder | IC50 (µM), Tau40 assay (ThT) [1] | IC50 (µM), VQIINK Inhibition (ThT) [2]
1 | WRIRIRW | 0.9 µM and 0.84 µM | 2.96 µM
2 | RIRIFIW | 3.94 µM | 1.57 µM
3 | FRIRIHHW | 3.2 µM | 1.08 µM
4 | IRLWVW | 8.77 µM | 1.63 µM
5 | ERIRIRW | 12.2 µM | 5.98 µM
6 | RIRVWIF | 6.53 µM and 6.89 µM | 2.8 µM
7 | IRIWIW | 6.77 µM | 2.94 µM
8 | WYRLRIRW | 0.86 µM and 0.97 µM | 2.36 µM
9 | WRIRARW | 8.01 µM | 4.07 µM
10 | WRIRWRYW | 0.42 µM and 0.41 µM | 3.46 µM
11 | WIRIRIW | 2.03 µM and 2.04 µM | 0.81 µM and 1.72 µM
12 | WRIRIRF | 10.8 µM | 42.8 µM
13 | WRIRIRA | 8.31 µM | 8.28 µM
14 | WRIWIR | 7.22 µM | 11.8 µM
15 | HRIRIRW | 3.28 µM | 9.07 µM
16 | LKIHIRHW | 3.79 µM | 3.05 µM
17 | FRIRIKHY | 9.45 µM | 3.61 µM
18 | WRIHIRYW | 3.76 µM | 3.17 µM
19 | WYRIWIRW | 0.96 µM and 1 µM and 1.73 µM | 2.02 µM and 3.69 µM
20 | RIWIRVW | 6.36 µM | 2.14 µM
21 | W[hArg]I[hArg]L[hArg]W [W(hR)I(hR)L(hR)W] | 3.39 µM | 2.52 µM
22 | RIALYWW | 3.54 µM | 2.39 µM
23 | RIRILIL | 2.15 µM | 1.64 µM
24 | RIRIRW | 10.9 µM | 10.8 µM
25 | KWWIRIRYW | 4.62 µM and 7.02 µM | 1.8 µM
26 | RIRIRWW | 4.57 µM | 10.2 µM
27 | RRIRIRW | 2.88 µM | 4.29 µM
28 | RIWIRIW | 6.47 µM | 3.17 µM
29 | ARIWIRYW | 4.08 µM | 3.14 µM
30 | RIRIWVW | 7.07 µM | 2.3 µM

Reference: patent US20230137562A1, “TAU AGGREGATION INHIBITORS” (priority 2017, published 2023)
